Data on four molecules can be found in US4770993A, “Hybridoma tumor cell lines and their monoclonal antibodies to thaumatin” (Beatrice Companies, Inc., priority 1985, dated 1988).

For series [1], the system named is monoclonal antibody of clone No. 29. Briefly: Competition assay between native plant thaumatin I and monellin, clone No. 29 antibody. It counts as binding, mouse.
In series [2] the test system is clone No. 3 monoclonal antibodies. Kind of series: Competition ELISA, inhibition of binding of clone No. 3 monoclonal antibodies to native plant thaumatin I. The arrangement: species or system mouse. How it is done:
(§1) The following procedure is utilized to carry out enzyme linked immunosorbance assays (ELISA) for thaumatin. All reactions are carried out at room temperature and the ELISA plate is covered with Saran brand plastic wrap at all stages and is incubated within a humidified chamber. ELISA plates are coated by placing 10 ng of thaumatin I purified according to the procedure of example 1 in 50 μl of 25 mM NaHCO3 (pH 9.2). This is incubated at room temperature for 2 hours. The plates are washed twice with 400 μl of PBS (50 mM potassium phosphate, 150 mM NaCl, (pH 7.4) and Tween 20 (0.05%)) (a detergent manufactured by Sigma Chemical Co.) and then twice with 400 μl water. The plates are then coated with 200 μl of 1% bovine serum albumin (BSA) in PBS-Tween 20 (0.025% solution) for 2 hours at room temperature. The plates are again washed twice with 400 μl of the PBS-Tween solution and twice with water.
(§2) Fifty μl of media from the culture to be tested is then added. Normal, unfused myeloma cell (Sp2-0/Ag-14) media is used as the negative control. Mouse serum at a dilution of 1:500 or greater is used as a positive control. The media is then incubated for at least four hours at room temperature. The plates are then again washed twice with 400 μl of PBS-Tween 20 solution and then twice with water. Fifty μl of a 1:100 dilution of rabbit anti-mouse light K and λ chain immunoglobulin is added and this is incubated for 2 hours at room temperature. The plates are again washed twice with 400 μl of 0.5% PBS-Tween 20 solution and twice with water. Fifty μl of conjugated goat anti-rabbit IgG peroxidase at a 1:1000 dilution is then added and incubated for 1 hour at room temperature. The plates are once more washed twice with 400 μl PBS-Tween 20 solution and twice with water.
(§3) Fifty μl of O-phenylenediamine dihydrochloride (OPD) solution containing 0.01% of H2 O2 is added to each well (OPD solution comprises 18 mg of OPD per 30 ml of staining buffer which itself comprises 4.86 ml of 0.5 M citric acid and 10.28 ml of 0.5 M Na2 HPO4 diluted up to 100 ml with water). The H2 O2 should be added to the OPD only seconds before application. This mixture is then incubated for 5-15 minutes at room temperature until the reaction is stopped by addition of 50 μl of 4N H2 SO4. The optical density of the wells is then measured at 490 nm by a Bio-Tek ELISA reader.
In this example, the inhibition effect of recombinant yeast produced thaumatin analogue-glutathione adduct and of performic acid oxidized plant thaumatin on binding of clone No. 3 monoclonal antibodies to native plant thaumatin I was evaluated. ELISA plates were coated with 10 ng of native plant thaumatin I per well. The antibodies were preincubated with control buffer or with various amounts of test materials for 2 hours and were added to the plates. The plates were then developed according to the ELISA procedure of Example 3.

The conditions of series [3]: in words; cited from earlier work.
The conditions of series [4]: cited from earlier work; for taste responses: in words.
Series [5] concerns clone No. 29 monoclonal antibodies. Kind of series: Competition ELISA, inhibition of binding of clone No. 29 monoclonal antibodies to native plant thaumatin I. The arrangement: species or system mouse. On the procedure:
as §1
as §2, with “Mouse serum at a dilution of 1:500 or greater is used as a positive control.” left out
as §3
In this example inhibition effect of recombinant yeast produced thaumatin analogue-glutathione adduct and of performic acid oxidized thaumatin on binding of clone No. 29 monoclonal antibodies to native plant thaumatin I was evaluated. ELISA plates were coated with 10 ng of native plant thaumatin I per well. The antibodies were preincubated with control buffer or with various amounts of test materials for 2 hours and were added to the plates. The plates were then developed according to the ELISA procedure of Example 3.

Changes are numbered by the printed parent chain.

Regarding Monellin, the “Inhibition (%)” value in series [1] (amount of protein 10 ng) was “not detectable”; in series [1] (amount of protein 50 ng), “not detectable”; in series [1] (amount of protein 100 ng) it was “not detectable”; in series [1] (amount of protein 1 μg), 15%; in series [1] (amount of protein 10 μg), 60%; in series [1] (amount of protein 100 μg), 98%. In addition, in series [1] (monellin versus thaumatin), the “concentration inhibiting binding relative to thaumatin” value is recorded as “ten fold greater”.

B1: Thaumatin I: plant thaumatin I (obtained from Sigma Chemical Co.), sweet-tasting protein of Thaumatococcus daniellii, purified on an ion exchange column (protein, UniProt P02883 23-229, looked up)
Thaumatin I: ATFEIVNRCSYTVWAAASKGDAALDAGGRQLNSGESWTINVEPGTNGGKIWARTDCYFDDSGSGICKTGDCGGLLRCKRFGRPPTTLAEFSLNQYGKDYIDISNIKGFNVPMDFSPTTRGCRGVRCAADIVGQCPAKLKAPGGGCNDACTVFQTSEYCCTTGKCGPTEYSRFFKRLCPDAFSYVLDKPTTVTCPGSSNYRVTFCPTA
For the molecule B1, the “Inhibition of Binding (%)” value in series [2] (addition 100 ng) came to 16%; in series [2] (addition 200 ng), 30%; in series [2] (addition 500 ng) it was 50%; in series [2] (addition 1 μg), 60%; in series [2] (addition 2 μg), 80%; in series [5] (addition 100 ng) it was 5%. The “Inhibition of Binding (%)” value in series [5] (addition 200 ng) is 30%; in series [5] (addition 500 ng) it was 51%; in series [5] (addition 1 μg) it was 65%; in series [5] (addition 2 μg) it was 80%. The “Inhibition (%)” value in series [1] (amount of protein 10 ng) is given as “not detectable”; in series [1] (amount of protein 50 ng) it was “not detectable”; in series [1] (amount of protein 100 ng), 25%; in series [1] (amount of protein 1 μg), 62.5%; in series [1] (amount of protein 10 μg) it was 94%; in series [1] (amount of protein 100 μg) it was 95%. Besides, the cariogenicity entry in series [3] is recorded as “non-cariogenic”. Further, the toxicity entry in series [3] was “non-toxic”. Besides, the taste responses entry in series [4] was “elicit profound taste responses”. Moreover, the “sweetness relative to sucrose” value in series [4] (on a weight basis) is “about 5000 times sweeter than sucrose”.

B2: Performic acid oxidized thaumatin: denatured thaumatin I prepared by incubation of thaumatin I in a chilled performic acid solution (protein, UniProt P02883 23-229, looked up)
Thaumatin I: B1 Thaumatin I
modifications: performic acid oxidized
notes: denatured thaumatin I prepared by incubation of thaumatin I in a chilled performic acid solution
Take B2: the “Inhibition of Binding (%)” value in series [2] (addition 100 ng) was found to be 0%; in series [2] (addition 200 ng), 0%; in series [2] (addition 500 ng), 0%; in series [2] (addition 1 μg), 0%; in series [2] (addition 2 μg), 6%; in series [5] (addition 100 ng) it was 8%. Besides, the “Inhibition of Binding (%)” value in series [5] (addition 200 ng) is 29.5%; in series [5] (addition 500 ng), 49%; in series [5] (addition 1 μg), 64%; in series [5] (addition 2 μg) it was 82%. For the same molecule, the “inhibition in the assay” value in series [2] (preincubation with clone No. 3 antibody, in words) is “little or no inhibition”. Further, in series [5] (in words), the “competition with native plant thaumatin I for clone No. 29 antibody” value was “compete effectively”.

B3: Thaumatin II: plant thaumatin II, sweet-tasting protein of Thaumatococcus daniellii (protein, UniProt P02884 23-229, looked up)
Thaumatin II: B1 Thaumatin I with N46K, S63R, K67R, R76Q
For B3, in series [3], the cariogenicity entry was “non-cariogenic” and the toxicity result is recorded as “non-toxic”. For the same molecule, in series [4], the taste responses entry is given as “elicit profound taste responses”.
